One experiment concerns the target HLA-B*48:01. As to the kind of experiment: IEDB peptide-MHC binding, purified MHC/direct/fluorescence; filed as Kd, often an IC50 or EC50 that approximates it; ≥ and ≤ were set here for values at or beyond the usual limits of such assays.
In the next experiment the target is HLA-C*07:02. The description is as above. As to conditions: source organism: Yellow fever virus.
A further experiment deals with HLA-B*45:06. The experiment can be described thus: IEDB peptide-MHC binding, purified MHC/competitive/fluorescence; filed as Kd, often an IC50 or EC50 that approximates it; ≥ and ≤ were set here for values at or beyond the usual limits of such assays.
Another experiment addresses HLA-C*06:02. The description is as above. Conditions: source organism: Yellow fever virus.
Another experiment deals with HLA-B*27:20. The description is as above.
The target in the next experiment is HLA-B*15:42. The experiment is described as above.
A further experiment concerns the target HLA-B*83:01. The description is as above.
Another experiment addresses HLA-A*01:01. As to the kind of experiment: IEDB peptide-MHC binding, purified MHC/direct/fluorescence; filed as Kd, often an IC50 or EC50 that approximates it; ≥ and ≤ were set here for values at or beyond the usual limits of such assays.
In the next experiment the target is HLA-B*57:01. The description is as above.
The target in another experiment is HLA-A*26:01. Described as above. Conditions: source organism: Vibrio vulnificus YJ016.
Another experiment deals with HLA-B*38:01. The experiment is described as above.
In the next experiment the target is HLA-A*03:01. Described as above.
In a further experiment the target is HLA-B*15:17. The experiment is described as above.
In the next experiment the target is HLA-A*11:01. The experiment is described as above.
Another experiment concerns the target HLA-B*40:01. The experiment is described as above.
Experiment [1] concerns the target HLA-A*31:01. Described as above. Conditions: source organism: Vibrio vulnificus YJ016.
The target in another experiment is HLA-B*15:01. The experiment is described as above.
A further experiment concerns the target HLA-B*58:01. The experiment is described as above.
Another experiment concerns the target HLA-B*27:05. Described as above.
For another experiment, the target named is HLA-B*15:09. The experiment is described as above.
In the next experiment the target is HLA-B*46:01. The description is as above.
For a further experiment, the target named is HLA-A*02:06. As to the kind of experiment: IEDB peptide-MHC binding, purified MHC/competitive/fluorescence; filed as Kd, often an IC50 or EC50 that approximates it; ≥ and ≤ were set here for values at or beyond the usual limits of such assays. Conditions: source organism: Vibrio vulnificus YJ016.
The next experiment concerns the target HLA-A*30:01. Described as above. Conditions: source organism: Vibrio vulnificus YJ016.
The target of experiment [2] is HLA-A*02:01. Described as above.
Experiment [3] concerns the target HLA-B*18:01. The description is as above. As to conditions: source organism: Vibrio vulnificus YJ016.
Experiment [4] addresses HLA-B*08:01. Described as above. As to conditions: source organism: Vibrio vulnificus YJ016.
Experiment [5] has as its target HLA-A*69:01. The experiment is described as above. Conditions: source organism: Vibrio vulnificus YJ016.
For experiment [6], the target named is HLA-B*39:01. Described as above. As to conditions: source organism: Vibrio vulnificus YJ016.
The next experiment addresses HLA-B*73:01. The experiment is described as above. As to conditions: source organism: Burkholderia mallei SAVP1.
Another experiment addresses HLA-A*02:11. The experiment is described as above. Conditions: source organism: Mycobacterium tuberculosis variant bovis BCG str. Pasteur 1173P2.
The target of another experiment is HLA-C*04:01. The experiment is described as above. Conditions: source organism: Mycobacterium tuberculosis variant bovis BCG str. Pasteur 1173P2.
Experiment [7] deals with HLA-A*02:01. The experiment can be described thus: IEDB peptide-MHC binding, purified MHC/direct/fluorescence; filed as Kd, often an IC50 or EC50 that approximates it; ≥ and ≤ were set here for values at or beyond the usual limits of such assays. Conditions: source organism: Yersinia pestis.
Experiment [8] deals with HLA-B*18:01. The experiment is described as above. Conditions: source organism: Yersinia pestis.
A further experiment concerns the target HLA-B*07:02. Described as above. Conditions: source organism: Yersinia pestis.
Experiment [9] deals with HLA-B*08:01. Described as above. As to conditions: source organism: Yersinia pestis CA88-4125.
The next experiment concerns the target HLA-B*51:01. The experiment is described as above. As to conditions: source organism: Yersinia pestis.
Experiment [10] addresses HLA-A*69:01. The description is as above. As to conditions: source organism: Yersinia pestis.
Experiment [11] has as its target HLA-B*39:01. The description is as above. As to conditions: source organism: Yersinia pestis CA88-4125.
Experiment [12] addresses HLA-A*31:01. As to the kind of experiment: IEDB peptide-MHC binding, purified MHC/competitive/fluorescence; filed as Kd, often an IC50 or EC50 that approximates it; ≥ and ≤ were set here for values at or beyond the usual limits of such assays. As to conditions: source organism: Yersinia pestis KIM10+.
Setting [13] is: source organism: Yellow fever virus.
[14] abbreviates: source organism: Vibrio vulnificus YJ016.
[15] abbreviates: source organism: Mycobacterium tuberculosis variant bovis BCG str. Pasteur 1173P2.
Setting [16] is: source organism: Yersinia pestis.
Setting [17] is: source organism: Yersinia pestis CA88-4125.

For the sequence RRRLRTLVL, the Kd (as a rule, the equilibrium constant for the complex coming apart) is 2.93 µM with HLA-B*48:01 (source organism: Yellow fever virus 17D); 0.225 µM with HLA-C*07:02; ≥ 5 µM with HLA-B*45:06 (setting [13]); 0.0505 µM with HLA-C*06:02; 0.0002 µM with HLA-B*27:20 (setting [13]); ≥ 5 µM with HLA-B*15:42 (setting [13]). In addition, the dissociation constant Kd with HLA-B*83:01 (setting [13]) was ≥ 5 µM.
For the sequence EPADHLAIM, the Kd with HLA-A*01:01 (setting [14]) is ≥ 20 µM; with HLA-B*57:01 (setting [14]), ≥ 20 µM; in the experiment with HLA-B*48:01 (setting [14]), ≥ 20 µM; with HLA-A*26:01, 0.047 µM; with HLA-B*38:01 (setting [14]), ≥ 20 µM; with HLA-A*03:01 (setting [14]) it was ≥ 20 µM. Besides, the Kd with HLA-B*15:17 (setting [14]), with HLA-A*11:01 (setting [14]), in the experiment with HLA-B*40:01 (setting [14]), with HLA-A*31:01 [1], with HLA-B*15:01 (setting [14]) and in the experiment with HLA-B*58:01 (setting [14]) was ≥ 20 µM each time. Further, the Kd in the experiment with HLA-B*27:05 (setting [14]) is ≥ 20 µM; with HLA-B*15:09 (setting [14]), ≥ 20 µM; with HLA-B*46:01 (setting [14]) it was ≥ 20 µM; in the experiment with HLA-A*02:06 it was ≥ 20 µM; with HLA-A*30:01 it was ≥ 20 µM; with HLA-A*02:01 [2] (setting [14]) it was 0.691 µM. The Kd with HLA-B*18:01 [3] is 3 µM; in the experiment with HLA-B*08:01 [4], ≥ 20 µM; with HLA-A*69:01 [5] it was ≥ 20 µM; with HLA-B*39:01 [6], 1.21 µM.
RRFWVGYQQ displayed a Kd with HLA-B*73:01 of 0.893 µM.
As for AEFGPWQTV, the Kd with HLA-A*02:11 is 0.125 µM; with HLA-B*45:06 (setting [15]) it was ≥ 5 µM; with HLA-A*02:01 [2] (setting [15]), 1.64 µM; in the experiment with HLA-B*27:20 (setting [15]) it was 0.185 µM; with HLA-B*15:42 (setting [15]) it was ≥ 5 µM; with HLA-B*83:01 (setting [15]), ≥ 5 µM. For the same sequence, the Kd in the experiment with HLA-C*04:01 was ≥ 5 µM.
For the sequence RPQLWRYRW, the Kd with HLA-A*01:01 (setting [16]) was ≥ 20 µM; with HLA-B*57:01 (setting [16]) it was 0.343 µM; with HLA-B*48:01 (setting [16]) it was ≥ 20 µM; with HLA-A*02:01 [7] it was ≥ 20 µM; with HLA-B*18:01 [8] it was ≥ 20 µM; with HLA-B*38:01 (setting [17]), ≥ 20 µM. In addition, the Kd with HLA-A*03:01 (setting [16]) was ≥ 20 µM; with HLA-B*15:17 (setting [16]) it was ≥ 20 µM; with HLA-B*07:02, 0.97 µM; with HLA-A*11:01 (setting [16]) it was ≥ 20 µM; with HLA-B*40:01 (setting [16]) it was ≥ 20 µM; with HLA-B*15:01 (setting [16]), ≥ 20 µM. Also, the Kd with HLA-B*58:01 (setting [17]) is 0.328 µM; with HLA-B*27:05 (setting [16]), ≥ 20 µM; in the experiment with HLA-B*15:09 (setting [17]) it was ≥ 20 µM; with HLA-B*08:01 [9], ≥ 20 µM; in the experiment with HLA-B*46:01 (setting [16]) it was ≥ 20 µM; with HLA-B*51:01, ≥ 20 µM. In addition, the Kd with HLA-A*69:01 [10] is ≥ 20 µM; with HLA-B*39:01 [11], 3.18 µM; with HLA-A*31:01 [12] it was 1.81 µM.

The record behind these values is the Immune Epitope Database (IEDB).
